Assay [1] deals with T1, human CLDN6 (human, UniProt P56747 1-220).
T1 chain: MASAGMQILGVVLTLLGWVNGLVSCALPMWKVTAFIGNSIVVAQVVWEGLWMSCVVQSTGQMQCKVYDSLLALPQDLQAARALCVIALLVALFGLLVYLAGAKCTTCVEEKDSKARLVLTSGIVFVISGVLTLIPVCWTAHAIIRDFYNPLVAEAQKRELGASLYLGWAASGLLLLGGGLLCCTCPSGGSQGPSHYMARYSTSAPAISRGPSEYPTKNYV
The assay can be described thus: FACS; HepG2 cells.

The next assay addresses T2, mouse CLDN6 (mouse, UniProt Q9Z262 1-219).
T2 chain: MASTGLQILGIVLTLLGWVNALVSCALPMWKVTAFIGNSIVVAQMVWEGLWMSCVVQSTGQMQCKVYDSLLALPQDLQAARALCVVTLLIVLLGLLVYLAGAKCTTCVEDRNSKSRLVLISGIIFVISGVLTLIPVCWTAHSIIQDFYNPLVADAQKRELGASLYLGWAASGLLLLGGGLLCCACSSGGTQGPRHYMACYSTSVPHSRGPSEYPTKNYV
Nature of the assay: FACS.

Assay [2] has as its target T3, monkey CLDN6 (Cyno CLDN6) (monkey (Cyno)).
T3 chain: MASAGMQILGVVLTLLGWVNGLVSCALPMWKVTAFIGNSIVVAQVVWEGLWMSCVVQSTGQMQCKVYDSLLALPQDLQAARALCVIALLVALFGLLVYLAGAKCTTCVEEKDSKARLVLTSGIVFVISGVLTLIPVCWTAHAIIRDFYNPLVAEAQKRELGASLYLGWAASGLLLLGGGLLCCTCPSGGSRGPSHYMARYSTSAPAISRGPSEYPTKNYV
Nature of the assay: FACS.

For assay [3], the target named is T1, human CLDN6. The assay can be described thus: FACS; HepG2 cells, FIG. 24.
For assay [4], the target named is T3, monkey CLDN6 (Cyno CLDN6). The assay can be described thus: FACS.

Where two headings read alike, the source gives them in different places.

B1: RecA101 (antibody, V domains shown)
VH: EVQLQQSGPELVKPGASVKMSCKASGYTFTDYNMHWVKKSHGKSLEWIGYVNPNNGATSYNQKFKGKATLTVNKSSSTAYMELRSLTSEDSAVYNCARWDGYVYYYGLDYWGQGTSVTVSS
VL: DIQMTQSSSYLSVSLGGRVTITCKASDHINNWLAWYQQKPGNAPRLLISGATSLETGVPSRFSGSGSGKDYTLSITSLQTEDVATYYCQQYWNTPYTFGGGTKLEIKR
Molecule B1 showed an EC50 with human CLDN6 [1] of 0.521 µg/mL.

B2: 54B5A7 (antibody, V domains shown)
VH: EVQLQQSGPELVKPGASVKMSCKASGYTFTDYNMHWVKKSHGKSLEWIGYINPNNGATNYNQKFKGKATLTVNKSSSTAYMELRSLTSEDSAVYNCARWDGYVYYYGMDYWGQGTSVTVSS
VL: DIQMTQSSSYLSVSLGGRVTITCKASDHINNWLAWYQQKPGNAPRLLISGATSLETGVPSRFSGSGSGKDYTLSITSLQTEDVATYYCQQYWNTPYTFGGGTKLEIKR
B2 gave an EC50 with mouse CLDN6 of 0.844 µg/mL.

B3: 51C10H4 (antibody, V domains shown)
VH: EVQLQQSGPELVKPGASVKMSCKASGYTFTDYNMHWVKKSHGKSLEWIGYVNPNNGATSYNQKFKGKATLTVNKSSSTAYMELRSLTSEDSAVYNCARWDGYVYYYGLDYWGQGTSVTVSS
VL: DIQMTQSSSYLSVSLGGRVTITCKASDHINNWLAWYQQKPGNAPRLLISGATSLETGVPSRFSGSGSGKDYTLSITSLQTEDVATYYCQQYWSTPYTFGGGTKLEIKR
For B3, the results for the EC50 (in assay [2]; in the assay with mouse CLDN6) were 0.636 µg/mL and 0.608 µg/mL, respectively.

B4: IMAB027 (antibody, V domains shown)
VH: EVQLQQSGPELVKPGASMKISCKASGYSFTGYTMNWVKQSHGKNLEWIGLINPYNGGTIYNQKFKGKATLTVDKSSSTAYMELLSLTSEDSAVYYCARDYGFVLDYWGQGTTLTVSS
VL: IVLTQSPAIMSASPGEKVTITCSASSSVSYLHWFQQKPGTSPKLWVYSTSNLPSGVPARFGGSGSGTSYSLTISRMEAEDAATYYCQQRSIYPPWTFGGGTKLEIKR
As to B4, the results for the EC50 (in the assay with human CLDN6 [3]; in assay [2]; in assay [4]) were 0.537 µg/mL, 0.0916 µg/mL and 0.0916 µg/mL, respectively.

B5: PiH2006 (antibody, V domains shown)
VH: QVQLVQSGAEVKKPGASVKVSCKASGYTFTDYNMHWVRQAPGQRLEWIGYINPNNGATNYNQKFKGRVTITVDTSASTAYMELSSLRSEDTAVYNCARWDGYVYYYGMDYWGQGTLVTVSS
VL: DIQMTQSPSSLSASVGGRVTITCKASDHINNWLAWYQQKPGKAPKLLISGATSLETGVPSRFSGSGSGTDYTFTISSLQPEDIATYYCQQYWNTPYTFGGGTKLEIKR
As to B5, the EC50 with mouse CLDN6 was 52.3 µg/mL; in assay [4] it was 1.33 µg/mL.

B6: PiH1006 (antibody, V domains shown)
VH: QVQLVQSGAEVKKPGASVKVSCKASGYTFTDYNMHWVRQAPGQGLEWIGYVNPNNGATSYNQKFKGRVTMTVDTSTSTVYMELSSLRSEDTAVYNCARWDGYVYYYGLDYWGQGTLVTVSS
VL: DIQMTQSPSSLSASVGGRVTITCKASDHINNWLAWYQQKPGKVPRLLISGATSLETGVPSRFSGSGSGTDYTLTISSLQPEDVATYYCQQYWSTPYTFGGGTKLEIKR
With B6, the EC50 was 1.28 µg/mL in assay [2] and 18.4 µg/mL in the assay with mouse CLDN6.

B7: PiH1008 (antibody, V domains shown)
VH: QVQLVQSGAEVKKPGASVKVSCKASGYTFTDYNMHWVRQAPGQSLEWIGYVNPNNGATSYNQKFKGRATMTVDKSTSTVYMELSSLRSEDTAVYNCARWDGYVYYYGLDYWGQGTLVTVSS
VL: DIQMTQSPSSLSASVGGRVTITCKASDHINNWLAWYQQKPGKVPRLLISGATSLETGVPSRFSGSGSGTDYTLTISSLQPEDVATYYCQQYWSTPYTFGGGTKLEIKR
Consider B7, for which the EC50 in assay [2] amounted to 0.97 µg/mL; with mouse CLDN6, 6.42 µg/mL.

B8: PiH1004 (antibody, V domains shown)
VH: QVQLVQSGAEVKKPGASVKVSCKASGYTFTDYNMHWVRQAPGQSLEWIGYVNPNNGATSYNQKFKGRATMTVDKSTSTVYMELSSLRSEDTAVYNCARWDGYVYYYGLDYWGQGTLVTVSS
VL: DIQMTQSPSSLSASVGDRVTITCKASDHINNWLAWYQQKPGKVPKLLISGATSLETGVPSRFSGSGSGTDYTLTISSLQPEDVATYYCQQYWSTPYTFGGGTKLEIKR
As to B8, the EC50 in assay [2] was 0.844 µg/mL; with mouse CLDN6, 8.57 µg/mL.
